Reference: patent publication US20150152150A1

target: human Y1 receptor (human) (UniProt P25929); experiment: cell-based or functional assay
Sequence (P25929 whole entry): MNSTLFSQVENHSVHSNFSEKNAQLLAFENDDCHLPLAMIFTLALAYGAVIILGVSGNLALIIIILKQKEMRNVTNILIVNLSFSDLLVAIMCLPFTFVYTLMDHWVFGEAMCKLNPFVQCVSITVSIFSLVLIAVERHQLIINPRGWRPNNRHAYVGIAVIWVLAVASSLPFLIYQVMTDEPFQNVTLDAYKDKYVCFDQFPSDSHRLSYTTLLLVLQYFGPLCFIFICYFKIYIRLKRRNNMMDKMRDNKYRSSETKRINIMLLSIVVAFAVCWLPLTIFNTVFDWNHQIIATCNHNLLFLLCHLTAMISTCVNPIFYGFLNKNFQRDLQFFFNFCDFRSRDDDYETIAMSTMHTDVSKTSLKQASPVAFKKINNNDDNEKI

Substance | EC50, Actone functional potency assay [nM]
4-N{alpha}-(3-Methylbutanoyl)-7-N{Epsilon}-[2-[2-[2-[[2-[2-[2-[[(4S)-4-carboxy-4-(14-sulfotetradecanoylamino)butanoyl]amino]ethoxy]ethoxy]acetyl]]amino]ethoxy]-ethoxy]acetyl]-[Arg4,Lys7,Gln18,Trp30,NMeArg35]hPYY(4-36) (peptide) | > 1000
4-N{alpha}-(3-Methylbutanoyl)-7-N{Epsilon}-[2-[2-[2-[[2-[2-[2-[[(4S)-4-carboxy-4-(14-carboxy-tetracanoylamino)butanoyl]amino]ethoxy]ethoxy]acetyl]]amino]ethoxy]-ethoxy]acetyl]-[Arg4,Lys7,Gln18,Trp30,NMeArg35]hPYY(4-36) (peptide) | > 1000
4-N{alpha}-(3-Methylbutanoyl)-7-N{Epsilon}-[2-[2-[2-[[2-[2-[2-[[(4S)-4-carboxy-4-(16-sulfohexadecanoylamino)butanoyl]amino]ethoxy]ethoxy]acetyl]amino]-ethoxy]ethoxy]acetyl]-[Lys7,Gln18,Trp30,NMeArg35]hPYY(4-36) (peptide) | > 1000
7-N{Epsilon}-[2-[2-[2-[[2-[2-[2-[[2-[2-[2-[[2-[2-[2-[4-[16-(1H-tetrazol-5-yl)-hexadecanoylsulfamoyl]butanoylamino]ethoxy]ethoxy]acetyl]amino]ethoxy]-ethoxy]acetyl]amino]ethoxy]ethoxy]acetyl]amino]ethoxy]ethoxy]acetyl]-[Lys7,Gln18,Trp30,NMeArg35]hPYY(3-36) (peptide) | > 1000
4-N{alpha}-(3-methyl-pentanoyl)-7-N{Epsilon}-[2-[2-[2-[[2-[2-[2-[[(4S)-4-carboxy-4-(16-sulfohexadecanoylamino)butanoyl]amino]ethoxy]ethoxy]acetyl]amino]-ethoxy]ethoxy]acetyl]-[Lys7,Gln18,Trp30,NMeArg35]hPYY(4-36) (peptide) | > 1000
4-N{alpha}-(3-Methylbutanoyl)-7-N{Epsilon}-[4-[3-[2-[2-[3-[[4-[3-[2-[2-[3-[[(4S)-4-carboxy-4-(16-sulfohexadecanoylamino)butanoyl]amino]propoxy]ethoxy]-ethoxy]propylamino]-4-oxobutanoyl]amino]propoxy]ethoxy]ethoxy]propylamino]-4-oxobutanoyl]-[Arg4,Lys7,Gln18,Trp30,NMeArg35]hPYY(4-36) (peptide) | > 1000
4-N{alpha}-(3-Methylbutanoyl)-7-N{Epsilon}-[2-[2-[2-[[2-[2-[2-[[(4S)-4-carboxy-4-(15-carboxypentadecanoylamino)butanoyl]amino]ethoxy]ethoxy]acetyl]amino]-ethoxy]ethoxy]acetyl]-[Arg4,Lys7,Gln18,Trp30,NMeArg35]hPYY(4-36) (peptide) | > 1000
7-N{Epsilon}-[2-[2-[2-[[2-[2-[2-[[(4S)-4-carboxy-4-(16-sulfohexadecanoylamino)-butanoyl]amino]ethoxy]ethoxy]acetyl]amino]ethoxy]ethoxy]acetyl]-[Lys7,Gln18, Trp30,NMeArg35]hPYY(3-36) (peptide) | > 1000
4-N{alpha}-(3-Methylbutanoyl)-7-N{Epsilon}-[2-[2-[2-[[2-[2-[2-[[(4S)-4-carboxy-4-(17-carboxyheptadecanoylamino)butanoyl]amino]ethoxy]ethoxy]acetyl]amino]ethoxy]-ethoxy]acetyl]-[Arg4,Lys7,Gln18,Trp30,NMeArg35]hPYY(4-36) (peptide) | > 1000
4-N{alpha}-(3-Methylbutanoyl)-7-N{Epsilon}-[2-[2-[2-[[2-[2-[2-[[(4S)-4-carboxy-4-(16-sulfohexadecanoylamino)-butanoyl]amino]ethoxy]ethoxy]acetyl]amino]ethoxy]-ethoxy]acetyl]-[Arg4,Lys7,Gln18,Trp30,NMeArg35]hPYY(4-36) (peptide) | > 1000
4-N{alpha}-(3-Methylbutanoyl)-7-N{Epsilon}-[2-[2-[2-[[2-[2-[2-[[(4S)-4-carboxy-4-(16-carboxy-hexadecanoylamino)butanoyl]amino]ethoxy]ethoxy]acetyl]]amino]ethoxy]-ethoxy]acetyl]-[Arg4,Lys7,Gln18,Trp30,NMeArg35]hPYY(4-36) (peptide) | > 1000
4-N{alpha}-(3-Methylbutanoyl)-7-N{Epsilon}-[2-[2-[2-[[2-[2-[2-[[2-[2-[2-[[(4S)-4-carboxy-4-(16-sulfohexadecanoylamino)butanoyl]amino]ethoxy]ethoxy]acetyl]-amino]ethoxy]ethoxy]acetyl]amino]ethoxy]ethoxy]acetyl]-[Arg4,Lys7,Gln18,Trp30,NMeArg35]hPYY(4-36) (peptide) | > 1000
4-N{alpha}-(3-Methylbutanoyl)-7-N{Epsilon}-[4-[3-[2-[2-[3-[[(4S)-4-carboxy-4-(16-sulfohexadecanoylamino)butanoyl]amino]propoxy]ethoxy]ethoxy]propylamino]-4-oxobutanoyl]-[Arg4,Lys7,Gln18,Trp30,NMeArg35]hPYY(4-36) (peptide) | > 1000
4-N{alpha}-(3-Methylbutanoyl)-7-N{Epsilon}-[(2S)-2-amino-6-[[2-[2-[2-[[(4S)-4-carboxy-4-(16-sulfohexadecanoylamino)butanoyl]amino]ethoxy]ethoxy]acetyl]-amino]hexanoyl]]-[Arg4,Lys7,Gln18,Trp30,NMeArg35]hPYY(4-36) (peptide) | > 1000
7-N{Epsilon}-[2-[2-[2-[[2-[2-[2-[[(4S)-4-carboxy-4-(16-sulfohexadecanoylamino)-butanoyl]amino]ethoxy]ethoxy]acetyl]amino]ethoxy]ethoxy]acetyl]-[Arg4,Lys7,Gln18, Trp30,NMeArg35]hPYY(3-36) (peptide) | > 1000
4-N{alpha}-(hexanoyl)-7-N{Epsilon}-[2-[2-[2-[[2-[2-[2-[[(4S)-4-carboxy-4-(16-sulfohexadecanoylamino)butanoyl]amino]ethoxy]ethoxy]acetyl]amino]ethoxy]-ethoxy]acetyl]-[Arg4,Lys7,Gln18,Trp30,NMeArg35]hPYY(4-36) (peptide) | > 1000

target: human Y4 receptor (human) (UniProt P50391); experiment: cell-based or functional assay
Sequence (P50391 whole entry): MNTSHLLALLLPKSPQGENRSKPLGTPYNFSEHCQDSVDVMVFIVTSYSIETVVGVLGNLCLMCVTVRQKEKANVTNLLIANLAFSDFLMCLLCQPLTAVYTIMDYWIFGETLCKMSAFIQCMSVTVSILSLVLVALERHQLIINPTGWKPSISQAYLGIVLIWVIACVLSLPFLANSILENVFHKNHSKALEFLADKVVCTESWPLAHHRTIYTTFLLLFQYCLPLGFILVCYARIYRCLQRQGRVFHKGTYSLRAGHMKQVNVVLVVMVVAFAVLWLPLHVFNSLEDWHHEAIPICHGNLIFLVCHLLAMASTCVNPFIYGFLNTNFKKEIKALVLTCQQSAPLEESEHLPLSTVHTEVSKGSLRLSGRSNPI

Substance | EC50, Actone functional potency assay [nM]
4-N{alpha}-(3-Methylbutanoyl)-7-N{Epsilon}-[2-[2-[2-[[2-[2-[2-[[(4S)-4-carboxy-4-(16-sulfohexadecanoylamino)-butanoyl]amino]ethoxy]ethoxy]acetyl]amino]ethoxy]-ethoxy]acetyl]-[Arg4,Lys7,D-isoAsp11,Gln18,Trp30,NMeArg35]hPYY(4-36) (peptide) | > 1000
4-N{alpha}-(3-Methylbutanoyl)-7-N{Epsilon}-[2-[2-[2-[[2-[2-[2-[[(4S)-4-carboxy-4-(16-sulfohexadecanoylamino)butanoyl]amino]ethoxy]ethoxy]acetyl]amino]-ethoxy]ethoxy]acetyl]-[Lys7,Gln18,Trp30,NMeArg35]hPYY(4-36) (peptide) | > 1000
4-N{alpha}-(3-Methylbutanoyl)-7-N{Epsilon}-[2-[2-[2-[[2-[2-[2-[[(4S)-4-carboxy-4-[[(4S)-4-carboxy-4-(16-sulfohexadecanoylamino)butanoyl]amino]butanoyl]amino]-ethoxy]ethoxy]acetyl]amino]ethoxy]ethoxy]acetyl]-[Lys7,Gln18,Trp30,NMeArg35] hPYY(4-36) (peptide) | > 1000
